Reference: US20220112284A1 (Innovent, published 2022)

B1: anti-PD-L1 humanized Nb-Fc antibody (Fc fusion)
chain: QVQLQESGGGLVQPGGSLRLSCAASAYTISRNSMGWFRQAPGKGLEGVAAIESDGSTSYSDSVKGRFTISLDNSKNTLYLEMNSLRAEDTAVYYCAAPKVGLGPRTALGHLAFMTLPALNYWGQGTLVTVSS
notes: The VHH is inferred from the words 'parent antibody' / 'parental anti-PD-L1 antibody'; also called anti-humanized Nb-Fc; parental anti-PD-L1 antibody; not shown: the antibody was obtained according to ZL201710657665.3
B2: anti-LAG-3 antibody ADI-31853 (antibody, human IgG1, kappa, L234A L235A, V domains shown)
VH: QLQLQESGPGLVKPSETLSLTCTVSGGSIYSESYYWGWIRQPPGKGLEWIGSIVYSGYTYYNPSLKSRVTISVDTSKNQFSLKLSSVTAADTAVYYCARVRTWDAAFDIWGQGTMVTVSS
VL: DIQMTQSPSSLSASVGDRVTITCQASQDISNYLNWYQQKPGKAPKLLIYDASNLETGVPSRFSGSGSGTDFTFTISSLQPEDIATYYCQQVLELPPWTFGGGTKVEIKR
notes: also called parental anti-LAG-3 antibody

Experiments:
human PD-L1-his [1] = biological target: T1, human PD-L1-his (human, UniProt Q9NZQ7 19-238); experiment: ForteBio Octet BLI; antibody on AHQ tip, human PD-L1-His 100 nM in solution, monovalent
T1 construct: Bought reagent; also called PD-L1 protein; not shown: His tag
Description: (§1) The equilibrium dissociation constant (KD) for the binding of the prepared exemplary anti-LAG-3/PD-L1 bispecific antibody IGN-LP disclosed herein to LAG-3 and PD-L1 was determined by a kinetic binding assay using the Octet system manufactured by ForteBio. A ForteBio affinity assay was performed according to the method reported in the literature (Estep, P, et al., High throughput solution Based measurement of antibody-antigen affinity and epitope binning MAbs, 2013, 5(2): p. 270-278). Briefly:
(§2) The anti-human IgG Fc biosensor AHQ was immersed in each well containing the antibody solution at room temperature for 600 s to load the samples. The sensor was then washed in SD buffer until it returned to the baseline, and then immersed in a well containing 100 μL of the antigen solution to monitor the binding of the antibody to the antigen. The sensor was then transferred to a well containing 100 uL of the SD buffer to monitor the antibody dissociation (the operation procedures were set as: Baseline, Loading ˜1 nm, Baseline, Association and Dissociation, each running for a time depending on the binding and dissociation rates of the samples). The rotation speed was 400 rpm and the temperature was 30° C. […]

human PD-L1-his [2] = biological target: T1, human PD-L1-his; experiment: ForteBio Octet BLI; antibody on AHQ tip, human PD-L1-His 100 nM in solution
Description: as §1, §2

[3] = biological target: T2, human PD-L1 on CHOS cells overexpressing PD-L1 (CHOS-PD-L1) (human, UniProt Q9NZQ7 19-290); experiment: FACS on CHOS-PD-L1 cells, PE anti-human Fc detection
T2 construct: whole, on cells; also called CHO-PD-L1; PD-L1 on the cell surface
Description: (§3) 2) Detection: The cell suspension was centrifuged at 400 g on a centrifuge for 5 min to remove the cell culture medium. The serial dilutions of the bispecific antibody IGN-LP disclosed herein and anti-humanized Nb-Fc and anti-LAG-3 antibody ADI31853 as controls were added to the U-shaped plate at 100 μL each, and then the cells were resuspended and put onto the ice to stand for 30 min. The cell suspension was centrifuged at 400 g for 5 min to remove the supernatant, and the cells were washed with PBS to remove the unbound antibodies. The resulting cell suspension was centrifuged at 400 g for 5 min to remove PBS. 100 μL of the solution of PE-conjugated anti-human Fc antibody (Jackson Immuno Research) diluted at a ratio of 1:200 was added to each well, and the cells were incubated in the dark on the ice for 30 min. Then the cell suspension was centrifuged at 400 g for 5 min to remove the supernatant. The cells were washed with PBS once to remove the unbound PE-conjugated anti-human Fc antibody. Then the cells were resuspended with 100 μL of PBS, and the binding of the antibody to cells was assayed by FACS.

human LAG-3-his [4] = biological target: T3, human LAG-3-his (human, UniProt P18627 23-450); experiment: ForteBio Octet BLI; antibody on AHQ tip, human LAG-3-His 100 nM in solution, monovalent
T3 construct: Bought reagent; also called LAG-3 protein; not shown: His tag
T3 sequence (looked up): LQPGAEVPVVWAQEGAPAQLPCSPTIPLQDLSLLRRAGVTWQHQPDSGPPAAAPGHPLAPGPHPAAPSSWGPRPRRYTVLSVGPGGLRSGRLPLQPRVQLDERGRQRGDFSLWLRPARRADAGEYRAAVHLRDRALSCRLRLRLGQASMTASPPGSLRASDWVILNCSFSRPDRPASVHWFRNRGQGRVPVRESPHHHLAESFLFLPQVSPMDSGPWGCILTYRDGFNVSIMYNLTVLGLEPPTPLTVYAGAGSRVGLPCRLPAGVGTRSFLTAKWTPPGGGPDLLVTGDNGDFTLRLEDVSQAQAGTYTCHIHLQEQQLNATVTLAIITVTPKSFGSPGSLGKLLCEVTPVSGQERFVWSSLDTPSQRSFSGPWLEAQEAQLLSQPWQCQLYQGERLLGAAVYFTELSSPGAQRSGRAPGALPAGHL
Description: as §1, §2

[5] = biological target: T4, human LAG-3 on 293 cells overexpressing human LAG-3 (293-LAG-3) (human, UniProt P18627 23-525); experiment: FACS on 293-LAG-3 cells, PE anti-human Fc detection
T4 construct: whole, on cells; also called LAG-3 on the cell surface
T4 sequence (looked up): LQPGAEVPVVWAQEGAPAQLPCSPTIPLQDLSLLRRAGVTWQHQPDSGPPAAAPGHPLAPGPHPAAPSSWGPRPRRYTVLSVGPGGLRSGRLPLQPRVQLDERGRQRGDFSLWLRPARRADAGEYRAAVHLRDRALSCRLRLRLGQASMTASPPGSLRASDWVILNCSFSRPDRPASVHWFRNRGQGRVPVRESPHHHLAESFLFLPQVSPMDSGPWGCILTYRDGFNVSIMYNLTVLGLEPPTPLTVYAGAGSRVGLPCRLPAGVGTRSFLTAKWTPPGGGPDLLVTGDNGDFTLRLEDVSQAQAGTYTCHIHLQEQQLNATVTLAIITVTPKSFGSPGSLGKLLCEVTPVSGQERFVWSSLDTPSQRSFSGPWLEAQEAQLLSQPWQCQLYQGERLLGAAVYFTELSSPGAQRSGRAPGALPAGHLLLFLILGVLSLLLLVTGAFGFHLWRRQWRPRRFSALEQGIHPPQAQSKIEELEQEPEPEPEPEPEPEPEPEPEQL
Description: as §3

human LAG-3-his [6] = biological target: T3, human LAG-3-his; experiment: ForteBio Octet BLI; antibody on AHQ tip, human LAG-3-His 100 nM in solution
Description: as §1, §2

T1 sequence (Q9NZQ7 19-238 limits assumed): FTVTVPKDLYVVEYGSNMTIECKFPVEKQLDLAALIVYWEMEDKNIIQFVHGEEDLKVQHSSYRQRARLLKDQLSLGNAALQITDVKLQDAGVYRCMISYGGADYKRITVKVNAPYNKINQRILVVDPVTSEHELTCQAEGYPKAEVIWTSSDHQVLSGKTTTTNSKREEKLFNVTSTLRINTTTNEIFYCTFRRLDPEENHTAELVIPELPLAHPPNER
T2 sequence (Q9NZQ7 19-290): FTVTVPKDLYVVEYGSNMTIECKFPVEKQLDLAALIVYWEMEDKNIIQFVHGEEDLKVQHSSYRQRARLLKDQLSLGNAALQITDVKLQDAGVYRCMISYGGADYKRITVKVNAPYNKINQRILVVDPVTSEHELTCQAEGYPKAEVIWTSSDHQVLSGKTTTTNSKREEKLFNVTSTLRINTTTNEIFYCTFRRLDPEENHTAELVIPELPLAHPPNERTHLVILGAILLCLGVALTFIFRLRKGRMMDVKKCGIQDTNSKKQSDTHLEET

Row | Kd (human PD-L1-his [1]) [nM] | koff (human PD-L1-his [2]) [s⁻¹] | kon (human PD-L1-his [2]) [M⁻¹ s⁻¹] | EC50 [3] [nM] | Kd (human LAG-3-his [4]) [nM] | EC50 [5] [nM] | koff (human LAG-3-his [6]) [s⁻¹] | kon (human LAG-3-his [6]) [M⁻¹ s⁻¹] | Binder
1 | 11.5 | 0.00356 | 310000 | 1.2 | – | – | – | – | B1
2 | – | – | – | – | 1.56 | 0.504 | 0.0002 | 128000 | B2
